Numbering of substitutions follows the chain as printed.
B1: CA12: anti-tau clone, SEQ ID NO: 372 (protein)
scFv: QVQLQGSGPSLVKPSQTLSLTCTVSGFSFDSYYVGWVRQAPGKALEWLGNIYSTGRAFYNPALKSRLSITRDTSKSQVSLSVSSVTIEDTALYYCVRGSYYHGGGNGMVDFFDYWSPGLLVTVSSEGKSSGASGESKVDDQVVRTQPSSVSGSLGQRVSITCSGSSSNVGYGNYVGWFQQVPGSAPKLLIYAATSRASGVPDRFSGSRSGNTATLTIDSLQAEDEADYYCSSYQRGNTGVFGSGTRLTVLG
modifications: CA12 amino acid sequence
B2: CA12 scAb (protein)
scFv: B1 scFv
modifications: left off: small tags and cut ends
B3: CA4: anti-tau clone, SEQ ID NO: 368 (protein)
chain: QVQLQESGPSLVKPSQTLSLTCTVSGFSLTSYSVYWVRQAPGQALEWISIMYASGRVDYNPALKSRLSITRDTSKSQFSLSLSSVTTEDTAVYYCTRGIENWGPGLLVTVSSEGKSSGASGESKVDDDIQVTQSPSSLSASLTERVSITCRTSQSVNNYLSWYQQKPGQAPKLLIYYATRLYTDVPSRFSGSGSGTDYTLTITSLEADDTATYYCLQYDSTPLAFGGGTNVEIK
modifications: CA4 amino acid sequence
B4: CA9: anti-tau clone, SEQ ID NO: 371 (protein)
scFv: QVQLQESGPSLVKPSQTLSLTCTVSGFSLTSNSVGWVRQAPGKAPEWVAGIDTDGEEGYNPALNSRLSITRDTSKSQVSLSLSSVTSEDTAVYYCGRSYRSDGLAYGYVQAIDYWGPGLLVTVSSEGKSSGASGESKVDDQAVLTQPASVSGSLGQRVSITCSGSFIGISSVGWFQQLPGSGLRTIIVASDGRPSGVPDRFSMSKSGNTATLTISSLQAEDEADYFCGSSDRTQYTGVFGSGTRLTVLG
modifications: CA9 amino acid sequence
B5: S1E12: anti-tau clone, SEQ ID NO: 218 (protein)
scFv: B4 scFv with T30G, S101A, Q141R, A142V, L144R, A148S
modifications: S1E12 amino acid sequence
B6: CA9 scAb (protein)
scFv: B4 scFv
modifications: left off: small tags and cut ends

Experiments:
[1] = test system: alanine substituted 13mer tau peptides; experiment: Alanine scanning mutagenesis (ASM) peptide ELISA; format: binding, human; conditions: numbering according to SEQ ID NO: 1; description text 'may be'
Method: To further elucidate epitopes of the scAb panel, and identify the critical amino acids needed for binding, alanine scanning mutagenesis of the parent 13 aa peptides for scAbs CE2, S1D12, CA4 and S1G2 was performed. […] Briefly, 5 μg/ml streptavidin (Thermo Fisher) was adsorbed to Nunc 96-well MaxiSorp plates and following incubation at 37° C., for 1 h, the plates were washed as normal and blocked with 2% MPBS. N-terminally biotinylated peptides (Prolmmune Ltd) were added to the plates and incubated for 1 h at 37° C. Subsequently, test scAbs at starting concentrations of 100-500 nM was added and double diluted across the plate for each peptide and incubated for 1 h at 37° C. Rest of the ELISA was conducted as described above and the plates were read at absorbance 450 nm. Immunoreactivity of the scAb of interest was quantified as the % of scAb was bound for each peptide at a chosen concentration (FIG. 15-20).

dGAE aggregates = dGAE aggregates (Homo sapiens, UniProt P10636); experiment: Sandwich ELISA on SDS/Triton X-100 treated dGAE aggregates; format: binding
Method: For aggregation, 1000 μL 100 μM dGAE+10 μL 10 mM DTT was added to a ‘LoBind’ microfuge tubes and agitated at 700 RPM/37° C., for 24 hours. Resulting sample centrifuged at 17,000×g/4° C., for 60 min and supernatant discarded to remove left over monomer. Pellet resuspended in half the original volume for future experiments and hereafter referred to as ‘aggregates’. 1 μl of aggregates was added to 1 ml of PBS and SDS was added to a final concentration of 1% (w/v). This was left to incubate on lab bench for 1 h with gentle agitation every 15 minutes. In order to neutralise the SDS effect on ELISA, Triton X-100 added to a final concentration of 3% (v/v) and mixed gently by pipetting to prevent any bubble formation. […] Similarly aggregates treated with only SDS or Triton X-100, untreated aggregates, dGAE monomers treated with only SDS or SDS+Titon X-100 were also added to designated wells as controls. All samples were then double diluted across the plate in final volumes of 100 μl. The final column was left with no protein to act as a blank. This was allowed to stand at room temperature for 1 hour followed by the addition of detection scAb-S1G2 at 10 μg/ml. Anti-HuCk HRP labelled secondary antibody was added as described previously and ELISA data generated was represented using the graph below. In addition, limits of detection (LoD) of various core binding antibody pairing for SDS Triton X-100 treated dGAE aggregates were calculated using the above describe ELISA method and substituting capture mAbs and detection scAbs as shown in Table 30.

htau40 = htau40 (Homo sapiens, UniProt P10636); experiment: Biacore X100 SPR of anti-tau mAbs on immobilised htau40; format: binding; conditions: mAb, Table 27, immobilised hT40
Method: For anti-tau mAb SPR measurements, htau40 was conjugated to the surface of a CM5 sensor chip using amine coupling as explained previously. Briefly, 2 μg/mL htau40 in 10 mM Sodium acetate buffer (pH 4.0) was passed over the activated chip surface (EDC/NHS) in flow cell 2 for a period for 45 s followed by blocking with 1 M ethanolamine-HCl PH 8.5. Flow cell 1 was set up as reference control and blocked simultaneously. Final immobilisation level of htau40 (Rmax) was approximately 250 RU. Following a minimum of three start-up cycles, increasing concentrations (0.78 nM-25 nM) of the mAb in HBS-EP+ buffer was added at a rate of 30 μL/min to the chip. The mAb was added for a 120 s association period and 600 s dissociation period followed by a regeneration cycle of 30 s injection of glycine buffer pH 1.5 in between each cycle. Binding responses were analysed in Biacore X100 evaluation software and data fitted to a 1:1 binding model to obtain kinetic and affinity characterisation.
For anti-tau mAb SPR measurements (Biacore X100™) and epitope mapping, the same methodologies described above (see Example 16) were followed. Kinetic rates and equilibrium binding constants of additional anti-tau mAbs and the regions recognised on hT40 are given in the Table 25 below

hT40 = hT40 (Homo sapiens, UniProt P10636); experiment: Biacore X100 SPR, scAb captured via anti-HuCk, hT40 as analyte; format: binding; conditions: scAb, Table 23, T441 (hT40)
Method: Surface plasmon resonance (SPR) is widely regarded as the gold standard for real time measurement of protein-protein interactions such as antibody binding. All SPR experiments were carried out using a Biacore X100 machine and HBS EP+ running buffer (GE Healthcare). A ‘capture’ method was followed for affinity measurements, where an anti-human constant kappa chain (HuCk) antibody was conjugated to the surface of a CM5 sensor chip using an amine coupling kit and scAb molecules were immobilised via their HuCk domain. Amine coupling is a very common approach for immobilising the ligand to the chip surface. […] The capture antibody was diluted 1/100 in 10 mM Sodium acetate buffer pH 5.0 and passed over the activated chip surface for a period of at least 420 s. Final ligand immobilisation levels over 12,000 RU were deemed to be satisfactory.
(§1) Following immobilisation, the level of each scAb to be captured was identified using the standard SPR equation with a theoretical RMax of 100 RU. Analyte MW refers to the molecular weight of hT40 or dGA/dGAE molecules, while ligand MW refers to the molecular weight of the scAbs tested. RL is the desired capture level and S refers to the stoichiometric ratio:
The scAb to be tested was added only to flow cell 2 so that flow cell 1 could act as a control to subtract any interaction with the analyte and the chip surface. Both single and multi-cycle runs were utilised using wizards developed in the Biacore X100 control software which are both accepted methods of kinetic analysis (Karlsson, R., et al. Analyzing a kinetic titration series using affinity biosensors (2006) Analytical Biochemistry 349:136-47). The multi-cycle protocol was as follows-Three start-up cycles composed of an initial capture, to the desired level, of the scAb to be tested was performed followed by a 30 s injection of glycine buffer pH 2.0 after each cycle to regenerate the chip surface. […] Following three start-up cycles increasing concentrations (0.15625 nM-100 nM) of the target to be tested were added to the chip surface after the desired scAb capture. The target was added for a 120 s association period and 420 s dissociation period followed by another regeneration, 30 s injection of glycine buffer pH 2.0 in between each cycle.
(§2) The single cycle kinetics protocol was similar and utilised the same level of scAb capture. Three start-up cycles were used followed by 5 increasing concentrations of the analyte (6.25 nM-100 nM) for an association period of 120 s followed by a dissociation period of 420 s for each concentration. In single cycle kinetics the regeneration step was performed only after the final analyte concentration was added. Binding responses were analysed in Biacore X100 evaluation software and data fitted to a 1:1 binding model to obtain kinetic and affinity characterisation.

dGA = dGA (Homo sapiens, UniProt P10636); experiment: Biacore X100 SPR, scAb captured via anti-HuCk, dGA as analyte; format: binding; conditions: dissociation rate
Method: Surface plasmon resonance (SPR) is widely regarded as the gold standard for real time measurement of protein-protein interactions such as antibody binding. All SPR experiments were carried out using a Biacore X100 machine and HBS EP+ running buffer (GE Healthcare). A ‘capture’ method was followed for affinity measurements, where an anti-human constant kappa chain (HuCk) antibody was conjugated to the surface of a CM5 sensor chip using an amine coupling kit and scAb molecules were immobilised via their HuCk domain. Amine coupling is a very common approach for immobilising the ligand to the chip surface. The chip surface has a dextran matrix derivatised with carboxyl groups, which after activation with N-hydroxysuccinimide (NHS) and 1-ethyl-3-(3-dimethylaminopropyl) carbodiimide (EDC), form reactive succinimide esters which allows the covalent capturing of the ligand via any available primary amine groups (e.g. Lysine) on the ligand (in this case anti-HuCk antibody). The capture antibody was diluted 1/100 in 10 mM Sodium acetate buffer pH 5.0 and passed over the activated chip surface for a period of at least 420 s. Final ligand immobilisation levels over 12,000 RU were deemed to be satisfactory.
as §1
The scAb to be tested was added only to flow cell 2 so that flow cell 1 could act as a control to subtract any interaction with the analyte and the chip surface. Both single and multi-cycle runs were utilised using wizards developed in the Biacore X100 control software which are both accepted methods of kinetic analysis (Karlsson, R., et al. Analyzing a kinetic titration series using affinity biosensors (2006) Analytical Biochemistry 349:136-47). The multi-cycle protocol was as follows-Three start-up cycles composed of an initial capture, to the desired level, of the scAb to be tested was performed followed by a 30 s injection of glycine buffer pH 2.0 after each cycle to regenerate the chip surface. The regeneration step removed any captured scAb whilst leaving the capture antibody intact and able to repeat the capture for the next cycle. Following three start-up cycles increasing concentrations (0.15625 nM-100 nM) of the target to be tested were added to the chip surface after the desired scAb capture. The target was added for a 120 s association period and 420 s dissociation period followed by another regeneration, 30 s injection of glycine buffer pH 2.0 in between each cycle.
as §2

[2] = S1D12 mAb capture, +SDS Triton dGAE agg.
[3] = direct immobilisation of dGAE aggregates, +SDS Triton

dGAE aggregates, sequence (P10636 614-708): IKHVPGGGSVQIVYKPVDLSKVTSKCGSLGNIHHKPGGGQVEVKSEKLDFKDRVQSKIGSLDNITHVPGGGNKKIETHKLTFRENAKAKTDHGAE
hT40, sequence (P10636 1-441 isoform P10636-8): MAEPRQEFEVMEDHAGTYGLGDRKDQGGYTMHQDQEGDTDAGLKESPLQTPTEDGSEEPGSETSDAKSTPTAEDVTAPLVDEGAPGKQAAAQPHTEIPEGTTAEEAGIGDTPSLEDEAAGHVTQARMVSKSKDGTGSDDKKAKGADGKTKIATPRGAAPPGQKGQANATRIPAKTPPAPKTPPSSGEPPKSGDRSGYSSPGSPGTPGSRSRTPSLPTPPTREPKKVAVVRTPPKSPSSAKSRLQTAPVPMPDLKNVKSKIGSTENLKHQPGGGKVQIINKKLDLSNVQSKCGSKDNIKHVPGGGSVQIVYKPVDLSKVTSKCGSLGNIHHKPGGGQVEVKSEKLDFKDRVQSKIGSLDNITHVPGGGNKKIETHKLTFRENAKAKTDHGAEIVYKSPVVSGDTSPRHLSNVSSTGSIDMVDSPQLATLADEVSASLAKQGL
htau40, sequence (P10636 1-441 isoform P10636-8): as above
dGA, sequence (P10636 614-707): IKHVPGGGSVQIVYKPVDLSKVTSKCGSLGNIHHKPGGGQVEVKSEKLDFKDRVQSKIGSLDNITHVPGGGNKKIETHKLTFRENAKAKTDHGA

Molecule	Critical residues of the epitope [1]	LoD (dGAE aggregates; [2]) [ng/mL]	LoD (dGAE aggregates; [3]) [ng/mL]	ka (hT40) [M⁻¹ s⁻¹]	kd (hT40) [s⁻¹]	further results
B1	370 (K), and/or 374 (H)	–	–	–	–	–
B2	–	2	16	–	–	–
B3	358 (D), 360 (I), 361 (T), 362 (H) and/or 364 (P)	–	–	458100	0.001654	ka (htau40): 1.02e+06 M⁻¹ s⁻¹; kd (htau40): 0.001276 s⁻¹
B4	370 (K), and/or 374 (H)	–	–	–	–	–
B5	–	–	–	385000	0.000319	Kd (dGA): 0.001627 s⁻¹
B6	–	4	40	–	–	–

— US12624096B2, “Anti-tau antibodies and methods of use thereof” (GTInvent Limited, priority 2020, dated 2026)
